Source: article PMC5022050, “The Crystal Structure of Peroxiredoxin Asp f3 Provides Mechanistic Insight into Oxidative Stress Resistance and Virulence of Aspergillus fumigatus” (Scientific Reports, 2016)
Positions count from the first letter of the chain named. Numbers in names are those of the source.

B1: Asp f3 wild type, recombinant, C-terminally His-tagged (enzyme)
chain: MGSGLKAGDSFPSDVVFSYIPWSEDKGEITACGIPINYNASKEWADKKVILFALPGAFTPVCSARHVPEYIEKLPEIRAKGVDVVAVLAYNDAYVMSAWGKANQVTGDDILFLSDPDARFSKSIGWADEEGRTKRYALVIDHGKITYAALEPAKNHLEFSSAETVLKHL
notes: also called Aspf3 WT; WT Asp f3; source: E. coli ClearColi BL21(DE3), purified (Ni-NTA, size-exclusion on Superdex 75); not shown: His6, C-terminal, kept
B2: Asp f3 C31S/C61S variant, recombinant, C-terminally His-tagged (enzyme)
chain: B1 chain with C32S, C62S
notes: also called serine variant; mimic of the reduced Asp f3; source: E. coli ClearColi BL21(DE3), purified (Ni-NTA, size-exclusion on Superdex 75); not shown: His6, C-terminal, kept

Target: the molecule itself
Assay: AUC; sedimentation equilibrium, PBS pH 7.4, ~5, ~15 and ~25 uM protein, 10000, 20000 and 30000 rpm, 25 °C; global fit with Sedfit and Sedphat

Row | Protein | stoichiometry N
1 | B1 | 2
2 | B2 | 2
